Blank lines part the entries; values can stand above or below the binder they belong to.
Experiments:
[1] = biological target: T1, soluble human plexin A1 (hsPlexin A1) (human, UniProt Q9UIW2 27-1243); test: Biacore, antibody on protein A/G, hsPlexin A1 analyte, 37C, pH 6.0
T1 construct: range 27-1243
Experimental: (§1) Assay was carried out using 10 mmol/l ACES/150 mmol/l NaCl containing 0.05% Surfactant P20 (pH 7.4 and pH 6.0) as a running buffer. […] Assays were carried out at 37 degrees C. The assay results were analyzed using Biacore T100 Evaluation Software (GE Healthcare), and the association rate constant, ka (1/Ms), and the dissociation rate constant, kd (1/s), were calculated from the assay results. Then the KD (M) was calculated from ka and kd (Table 15). Furthermore, the pH-dependent binding was evaluated to calculate the KD ratio between pH 7.4 and pH 6.0 for each antibody.

[2] = biological target: T1, soluble human plexin A1 (hsPlexin A1); test: Biacore, antibody on protein A/G, hsPlexin A1 analyte, 37C, pH 7.4
Experimental: as §1

[3] = biological target: T2, soluble human FcRn (complex of FcRn and beta2-microglobulin) (human, UniProt P55899 24-297; P61769 21-119); test: Biacore steady-state, antibody immobilized, pH 6.0, 25C
T2 construct: Secreted from HEK293H
Experimental: The antibodies were tested as a test substance after direct immobilization onto Series S Sensor Chip CM5. Using an amino-coupling kit according to the supplier's instruction manual, the antibodies were immobilized onto Sensor Chip so as to secure an immobilization amount of 500 RU. The running buffer used was 50 mmol/l Na-phosphate/150 mmol/l NaCl containing 0.05% (v/v %) Surfactant P20 (pH 6.0).
With the prepared sensor chips, assay was carried out using as a running buffer, 50 mmol/l Na-phosphate/150 mmol/l NaCl containing 0.05% Surfactant P20 (pH 6.0) or 50 mmol/l Na-phosphate/150 mmol/l NaCl containing 0.05% Surfactant P20 (pH 7.4). Assays were carried out exclusively at 25 degrees C. The diluted human FcRn solutions and running buffer as a reference solution were injected at a flow rate of 5 microliter/min for ten minutes to allow for human FcRn to interact with the antibody on the chip. Next, the running buffer was injected at a flow rate of 5 microliter/min for one minute to monitor the dissociation of FcRn. […]
The assay results were analyzed using Biacore T100 Evaluation Software (Ver. 2.0.1). By a steady-state affinity method, the dissociation constant (KD) was calculated from the assay results at six different FcRn concentrations.

[4] = biological target: T3, human IL-6 (TORAY) (human, UniProt P05231 30-212, limits assumed); test: Biacore, antibody on protein A/G, IL-6 analyte, 37C, pH 5.5
T3 construct: also called hIL-6
Experimental: (§2) Assay was carried out using 10 mmol/l ACES/150 mmol/l NaCl containing 0.05% Surfactant P20 (pH 7.4 and pH 6.0) as a running buffer. After antibodies were bound to recombinant proteinA/G (Thermo Scientific) immobilized on sensor chips using an amino-coupling method, appropriate concentrations of human IL-6 (TORAY) as an analyte were injected. Assays were carried out at 37 degrees C. The assay results were analyzed using Biacore T100 Evaluation Software (GE Healthcare), and the association rate constant, ka (1/Ms), and the dissociation rate constant, kd (1/s), were calculated from the assay results. […] Furthermore, the pH-dependent binding was evaluated to calculate the KD ratio between pH 7.4 and pH 6.0 for each antibody.

[5] = biological target: T3, human IL-6 (TORAY); test: Biacore, antibody on protein A/G, IL-6 analyte, 37C, pH 7.4
Experimental: as §2

[6] = biological target: T2, soluble human FcRn (complex of FcRn and …); test: Biacore pH 7.0
Experimental: (§3) The binding between antibody and human FcRn was kinetically analyzed using Biacore T100 (GE Healthcare). […] An appropriate amount of protein L (ACTIGEN) was immobilized onto Sensor chip CM4 (GE Healthcare) by the amino coupling method, and the chip was allowed to capture an antibody of interest. Then, diluted FcRn solutions and running buffer (as a reference solution) were injected to allow human FcRn to interact with the antibody captured on the sensor chip. The running buffer used comprised 50 mmol/l sodium phosphate, 150 mmol/l NaCl, and 0.05% (w/v) Tween20 (pH 7.0). FcRn was diluted using each buffer. The chip was regenerated using 10 mmol/l glycine-HCl (pH 1.5). Assays were carried out exclusively at 25 degrees C. The association rate constant ka (1/Ms) and dissociation rate constant kd (1/s), both of which are kinetic parameters, were calculated based on the sensorgrams obtained in the assays, and KD (M) of each antibody for human FcRn was determined from these values. Each parameter was calculated using Biacore T100 Evaluation Software (GE Healthcare).

[7] = biological target: T2, soluble human FcRn (complex of FcRn and …); test: Biacore pH 7.0; remark: listed apart in the source
Experimental: as §3

[8] = biological target: T2, soluble human FcRn (complex of FcRn and …); test: Biacore pH 7.0; remark: listed apart in the source
Experimental: as §3

T1 sequence (Q9UIW2 other isoform, or with tags, fused parts or gaps limits assumed): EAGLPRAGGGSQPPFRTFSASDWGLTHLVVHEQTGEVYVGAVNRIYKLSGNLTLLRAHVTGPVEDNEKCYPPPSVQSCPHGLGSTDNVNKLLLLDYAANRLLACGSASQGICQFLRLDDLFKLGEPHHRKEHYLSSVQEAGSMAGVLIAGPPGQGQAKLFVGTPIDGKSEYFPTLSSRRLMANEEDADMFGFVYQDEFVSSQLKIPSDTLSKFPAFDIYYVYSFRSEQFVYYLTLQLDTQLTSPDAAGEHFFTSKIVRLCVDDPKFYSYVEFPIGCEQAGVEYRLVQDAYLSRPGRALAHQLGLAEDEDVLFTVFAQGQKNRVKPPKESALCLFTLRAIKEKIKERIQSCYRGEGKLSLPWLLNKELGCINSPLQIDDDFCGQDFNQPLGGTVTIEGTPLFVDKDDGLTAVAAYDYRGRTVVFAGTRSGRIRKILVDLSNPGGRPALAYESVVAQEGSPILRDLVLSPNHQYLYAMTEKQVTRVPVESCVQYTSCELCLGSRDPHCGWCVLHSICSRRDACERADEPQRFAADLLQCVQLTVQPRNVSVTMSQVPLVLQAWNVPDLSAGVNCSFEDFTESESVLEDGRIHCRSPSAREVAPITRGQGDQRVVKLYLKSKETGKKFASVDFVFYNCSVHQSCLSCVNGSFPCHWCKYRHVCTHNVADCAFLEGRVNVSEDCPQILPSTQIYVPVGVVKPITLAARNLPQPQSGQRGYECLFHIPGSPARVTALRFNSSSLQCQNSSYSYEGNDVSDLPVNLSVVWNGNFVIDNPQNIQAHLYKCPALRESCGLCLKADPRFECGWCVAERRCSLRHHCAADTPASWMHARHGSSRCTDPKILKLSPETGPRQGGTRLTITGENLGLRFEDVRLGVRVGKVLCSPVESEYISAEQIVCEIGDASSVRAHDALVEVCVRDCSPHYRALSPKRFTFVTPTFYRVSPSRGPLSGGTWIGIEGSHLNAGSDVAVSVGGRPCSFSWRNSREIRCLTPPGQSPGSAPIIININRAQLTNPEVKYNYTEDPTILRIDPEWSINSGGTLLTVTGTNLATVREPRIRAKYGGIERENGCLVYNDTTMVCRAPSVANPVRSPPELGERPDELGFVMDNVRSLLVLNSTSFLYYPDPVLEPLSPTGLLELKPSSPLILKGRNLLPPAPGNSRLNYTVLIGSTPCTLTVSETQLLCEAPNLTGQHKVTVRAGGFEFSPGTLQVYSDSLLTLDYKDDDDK

B2: Fv4-IgG1 (antibody)
heavy: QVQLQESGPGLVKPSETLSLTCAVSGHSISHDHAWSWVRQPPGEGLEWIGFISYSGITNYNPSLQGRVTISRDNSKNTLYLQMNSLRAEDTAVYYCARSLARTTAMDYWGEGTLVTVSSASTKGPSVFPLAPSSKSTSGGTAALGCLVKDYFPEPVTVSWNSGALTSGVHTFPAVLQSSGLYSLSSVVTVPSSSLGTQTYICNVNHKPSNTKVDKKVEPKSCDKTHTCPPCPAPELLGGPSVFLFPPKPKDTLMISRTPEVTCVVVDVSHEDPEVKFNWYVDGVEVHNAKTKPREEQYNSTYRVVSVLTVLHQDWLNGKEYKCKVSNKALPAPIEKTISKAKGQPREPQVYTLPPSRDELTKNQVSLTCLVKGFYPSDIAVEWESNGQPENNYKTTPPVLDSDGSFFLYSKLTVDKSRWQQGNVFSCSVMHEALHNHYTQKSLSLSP
light: DIQMTQSPSSLSASVGDSVTITCQASTDISSHLNWYQQKPGKAPELLIYYGSHLLSGVPSRFSGSGSGTDFTFTISSLEAEDAATYYCGQGNRLPYTFGQGTKVEIERTVAAPSVFIFPPSDEQLKSGTASVVCLLNNFYPREAKVQWKVDNALQSGNSQESVTEQDSKDSTYSLSSTLTLSKADYEKHKVYACEVTHQGLSSPVTKSFNRGEC
notes: VH3-IgG1 and VL3-CK; copies: 2 + 2
Kd [3]: 1990 nM

B3: CLB8-IgG1 (antibody, V domains shown)
VH: EVQLVESGGKLLKPGGSLKLSCAASGFTFSSFAMSWFRQSPEKRLEWVAEISSGGSYTYYPDTVTGRFTISRDNAKNTLYLEMSSLRSEDTAMYYCARGLWGYYALDYWGQGTSVTVSS
VL: QIVLIQSPAIMSASPGEKVTMTCSASSSVSYMYWYQQKPGSSPRLLIYDTSNLASGVPVRFSGSGSGTSYSLTISRMEAEDAATYYCQQWSGYPYTFGGGTKLEIKR
notes: chimeric anti-IL-6 antibody
Kd [4]: 0.18 nM
koff [4]: 0.00066 s⁻¹
kon [4]: 3.7e+06 M⁻¹ s⁻¹
Kd [5]: 0.22 nM
koff [5]: 0.0008 s⁻¹
kon [5]: 3.6e+06 M⁻¹ s⁻¹

B4: H16/L13-IgG1 (antibody, V domains shown)
VH: EVQLVESGGKLLKPGGSLKLSCAASGFTFSSHAMSWFRQSPEKRLEWVAEISSGGSYTYHPHTVTGRFTISRDNAKNTLYLEMSSLRSEDTAMYYCARGLWGHYALDYWGQGTSVTVSS
VL: QIVLIQSPAIMSASPGEKVTMTCSASSSVSYMYWYQQKPGSSPRLLIYDTSHHASGVPVRFSGSGSGTSYSLTISRMEAEDAATYYCHQWSGHPYTFGGGTKLEIKR
notes: chimeric anti-IL-6 antibody, pH-dependent
Kd [4]: 16 nM
koff [4]: 0.0059 s⁻¹
kon [4]: 370000 M⁻¹ s⁻¹
Kd [5]: 2.2 nM
koff [5]: 0.0046 s⁻¹
kon [5]: 2.1e+06 M⁻¹ s⁻¹

B6: IgG1-F162 (antibody)
heavy: QVQLQESGPGLVKPSETLSLTCAVSGHSISHDHAWSWVRQPPGEGLEWIGFISYSGITNYNPSLQGRVTISRDNSKNTLYLQMNSLRAEDTAVYYCARSLARTTAMDYWGEGTLVTVSSASTKGPSVFPLAPSSKSTSGGTAALGCLVKDYFPEPVTVSWNSGALTSGVHTFPAVLQSSGLYSLSSVVTVPSSSLGTQTYICNVNHKPSNTKVDKKVEPKSCDKTHTCPPCPAPELLGGPSVFLFPPKPKDTLWISRTPEVTCVVVDVSHEDPEVKFNWYVDGVEVHNAKTKPREEQYNSTYRVVSVLTVLHQDWLNGKEYKCKVSNKALPAPIEKTISKAKGQPREPQVYTLPPSRDELTKNQVSLTCLVKGFYPSDIAVEWESNGQPENNYKTTPPVLDSDGSFFLYSKLTVDKSRWQQGNVFSCSVYHEALHYHYTQKSLSLSP
light: not shown
notes: copies: 2 + 2
Kd [6]: 170 nM

B10: IgG1-F163 (antibody)
heavy: QVQLQESGPGLVKPSETLSLTCAVSGHSISHDHAWSWVRQPPGEGLEWIGFISYSGITNYNPSLQGRVTISRDNSKNTLYLQMNSLRAEDTAVYYCARSLARTTAMDYWGEGTLVTVSSASTKGPSVFPLAPSSKSTSGGTAALGCLVKDYFPEPVTVSWNSGALTSGVHTFPAVLQSSGLYSLSSVVTVPSSSLGTQTYICNVNHKPSNTKVDKKVEPKSCDKTHTCPPCPAPELLGGPSVFLFPPKPKDTLWISRTPEVTCVVVDVSHEDPEVKFNWYVDGVEVHNAKTKPREEQYNSTYRVVSVLTVLHQDWLNGKEYKCKVSNKALPAPIEKTISKAKGQPREPQVYTLPPSRDELTKNQVSLTCLVKGFYPSDIAVEWESNGQPENNYKTTPPVLDSDGSFFLYSKLTVDKSRWQQGNVFSCSVFHEALHYHYTQKSLSLSP
light: not shown
notes: copies: 2 + 2
Kd [6]: 350 nM

Results, then the binder that gave them:

Kd [1]: 63 nM
koff [1]: 0.0049 s⁻¹
kon [1]: 79000 M⁻¹ s⁻¹
Kd [2]: 4.2 nM
koff [2]: 0.00064 s⁻¹
kon [2]: 150000 M⁻¹ s⁻¹
B1: PX141-IgG1 (antibody, V domains shown)
VH: QEQLEESGGGLVKPEGSLTLTCKASGFDFSSYYYMCWVRQAPGKGLEWIGCIVTGSYGRSWYASWAKGRFTITRSTSLNTVTLQLNSLTAADTATYFCARDPFVIASSHYQNLWGPGTLVTVSS
VL: ALVMTQTPSPVSAAVGGTVTISCQSSPNIYNNYLSWYQQKPGQPPKLLIYRASNLETGVPSRFSGSGSGTQFTLTISDVQCDDAATYYCAGYKSYDNDDNAFGGGTEVVVKR
notes: chimeric anti-plexin A1 antibody, pH-dependent

Kd [1]: 4.4 nM
koff [1]: 0.00027 s⁻¹
kon [1]: 63000 M⁻¹ s⁻¹
Kd [2]: 5.4 nM
koff [2]: 0.00028 s⁻¹
kon [2]: 52000 M⁻¹ s⁻¹
B5: PX268-IgG1 (antibody, V domains shown)
VH: QSLEESGGDLVKPGASLTLTCTASGFSFSSNYWIYWVRQAPGKGLEWIACIYIGSDSAYYASWAKGRFTISKTSSTTVTLQMTSLTAADTATYFCARWDNSGRALKLWGPGTLVTVSS
VL: QMLTQTASPVSAAVGGTVTIKCQSSQSVADNNHLSWYQQKPGQPPKLLIYFASTLASGVSSRFKGSGSGTQFTLTISDVQCDDAATYYCLGNYDCGSADCHAFGGGTEVVVKR
notes: chimeric anti-plexin A1 antibody

Kd [7]: 51 nM
B7: IgG1-F403 (antibody)
heavy: QVQLQESGPGLVKPSETLSLTCAVSGHSISHDHAWSWVRQPPGEGLEWIGFISYSGITNYNPSLQGRVTISRDNSKNTLYLQMNSLRAEDTAVYYCARSLARTTAMDYWGEGTLVTVSSASTKGPSVFPLAPSSKSTSGGTAALGCLVKDYFPEPVTVSWNSGALTSGVHTFPAVLQSSGLYSLSSVVTVPSSSLGTQTYICNVNHKPSNTKVDKKVEPKSCDKTHTCPPCPAPELLGGPSVFLFPPKPKDTLMISRTVEVTCVVVDVSHEDPEVKFNWYVDGVEVHNAKTKPREEQYNSTYRVVSVLAVLHQDWLNGKEYKCKVSNKALPAPIEKTISKAKGQPREPQVYTLPPSRDELTKNQVSLTCLVKGFYPSDIAVEWESNGQPENNYKTTPPVLDSDGSFFLYSKLTVDKSRWQQGNVFSCSVEHEALHWHYTQKSLSLSP
light: not shown
notes: M428E as printed; may be a misprint of M428L; copies: 2 + 2

Kd [8]: 20 nM
B8: IgG1-F292 (antibody)
heavy: QVQLQESGPGLVKPSETLSLTCAVSGHSISHDHAWSWVRQPPGEGLEWIGFISYSGITNYNPSLQGRVTISRDNSKNTLYLQMNSLRAEDTAVYYCARSLARTTAMDYWGEGTLVTVSSASTKGPSVFPLAPSSKSTSGGTAALGCLVKDYFPEPVTVSWNSGALTSGVHTFPAVLQSSGLYSLSSVVTVPSSSLGTQTYICNVNHKPSNTKVDKKVEPKSCDKTHTCPPCPAPELLGGPKVFLFPPKPKDTLYISRTPEVTCVVVDVSHEDPEVKFNWYVDGVEVHNAKTKPREEQYNSTYRVVSVLTPLHQDWLNGKEYKCKVSNKALPAPIEKTISKAKGQPREPQVYTLPPSRDELTKNQVSLTCLVKGFYPSDIAVEWASNGQPENNYKTTPPVLDSDGSFFLYSKLTVDKSRWQQGNVFSCSVIHEALHYHYTQKSLSLSP
light: not shown
notes: copies: 2 + 2

Kd [8]: 29 nM
B9: IgG1-F311 (antibody)
heavy: QVQLQESGPGLVKPSETLSLTCAVSGHSISHDHAWSWVRQPPGEGLEWIGFISYSGITNYNPSLQGRVTISRDNSKNTLYLQMNSLRAEDTAVYYCARSLARTTAMDYWGEGTLVTVSSASTKGPSVFPLAPSSKSTSGGTAALGCLVKDYFPEPVTVSWNSGALTSGVHTFPAVLQSSGLYSLSSVVTVPSSSLGTQTYICNVNHKPSNTKVDKKVEPKSCDKTHTCPPCPAPELLGGPKVFLFPPKPKDTLWISRTPEVTCVVVDVSHEDPEVKFNWYVDGVEVHNAKTKPREEQYNSTYRVVSVLTPLHQDWLNGKEYKCKVSNKALPAPIEKTISKAKGQPREPQVYTLPPSRDELTKNQVSLTCLVKGFYPSDIAVEWESNGQPENNYKTTPPVLDSDGSFFLYSKLTVDKSRWQQGNVFSCSVFHEALHYHYTQKSLSLSP
light: not shown
notes: copies: 2 + 2

Kd [7]: 10 nM
B11: IgG1-F379 (antibody)
heavy: QVQLQESGPGLVKPSETLSLTCAVSGHSISHDHAWSWVRQPPGEGLEWIGFISYSGITNYNPSLQGRVTISRDNSKNTLYLQMNSLRAEDTAVYYCARSLARTTAMDYWGEGTLVTVSSASTKGPSVFPLAPSSKSTSGGTAALGCLVKDYFPEPVTVSWNSGALTSGVHTFPAVLQSSGLYSLSSVVTVPSSSLGTQTYICNVNHKPSNTKVDKKVEPKSCDKTHTCPPCPAPELLGGPKVFLFPPKPKDTLWISREPEVTCVVVDVSHEDPEVKFNWYVDGVEVHNAKTKPREEQYNSTYRVVSVLTPLHADWLNGKEYKCKVSNKALPAPIEKTISKAKGQPREPQVYTLPPSRDELTKNQVSLTCLVKGFYPSDIAVEWESNGQPENNYKTTPPVLDSDGSFFLYSKLTVDKSRWQQGNVFSCSVYHEALHYHYTQKSLSLSP
light: not shown
notes: copies: 2 + 2

Kd [8]: 18 nM
B12: IgG1-F308 (antibody)
heavy: QVQLQESGPGLVKPSETLSLTCAVSGHSISHDHAWSWVRQPPGEGLEWIGFISYSGITNYNPSLQGRVTISRDNSKNTLYLQMNSLRAEDTAVYYCARSLARTTAMDYWGEGTLVTVSSASTKGPSVFPLAPSSKSTSGGTAALGCLVKDYFPEPVTVSWNSGALTSGVHTFPAVLQSSGLYSLSSVVTVPSSSLGTQTYICNVNHKPSNTKVDKKVEPKSCDKTHTCPPCPAPELLGGPKVFLFPPKPKDTLWISRTPEVTCVVVDVSHEDPEVKFNWYVDGVEVHNAKTKPREEQYNSTYRVVSVLTPLHQDWLNGKEYKCKVSNKALPAPIEKTISKAKGQPREPQVYTLPPSRDELTKNQVSLTCLVKGFYPSDIAVEWASNGQPENNYKTTPPVLDSDGSFFLYSKLTVDKSRWQQGNVFSCSVYHEALHYHYTQKSLSLSP
light: not shown
notes: copies: 2 + 2

Kd [7]: 9.5 nM
B13: IgG1-F376 (antibody)
heavy: QVQLQESGPGLVKPSETLSLTCAVSGHSISHDHAWSWVRQPPGEGLEWIGFISYSGITNYNPSLQGRVTISRDNSKNTLYLQMNSLRAEDTAVYYCARSLARTTAMDYWGEGTLVTVSSASTKGPSVFPLAPSSKSTSGGTAALGCLVKDYFPEPVTVSWNSGALTSGVHTFPAVLQSSGLYSLSSVVTVPSSSLGTQTYICNVNHKPSNTKVDKKVEPKSCDKTHTCPPCPAPELLGGPKVFLFPPKPKDTLYISREPEVTCVVVDVSHEFPEVKFNWYVDGVEVHEAKTKPREEQYNSTYRVVSVLTPLHQDWLNGKEYKCKVSNKALPAPIEKTISKAKGQPREPQVYTLPPSRDELTKNQVSLTCLVKGFYPSDIAVEWESNGQPENNYKTTPPVLDSDGSFFLYSKLTVDKSRWQQGNVFSCSVMHEALHYHYTQKSLSLSP
light: not shown
notes: copies: 2 + 2
